# Molecular target: S. pneumoniae RecA lacking the first 28 residues (Δ28), purified (S. pneumoniae) (UniProt P0A451)
# Experiment: SEC-MALS; purified Δ28RecA; details in Supplementary Results and Supplementary Figure S5
substance,measurement,value
"S. pneumoniae RecA lacking the first 28 residues (Δ28), purified (from UniProt P0A451 29-388) (domain or fragment)",stoichiometry N,2
